Laboratory results from the DeepSol protein solubility set.

experiment: soluble on expression in E. coli; label from the status in PepcDB or PDB records

Row | Sequence | soluble on expression in E. coli
1 | MNSTQSRRVGLYGTGRAAAQLVGAIEASPHTLTTAIVFFDEQAGQDIGTLTGGRATGITATTDLEGAIRSGDFDVLAYAGLKGEVLHRAMELCADSGVDLVHACFVHPRVKLDPEMYSRLQKRAEETGARIVGTGMLPGFWLDVLPALLSSALPAPVSIIGESRSDITAWGRGVLADEMGLGTLADGQPGPVGGVLHESAEMIADILGLTGYESKVYGGYVTAHAATEVAGIQISPGDRVGFDEAATVVHDGRERVRIAWKGLPKGSFEGYERSLTVTAIGGDGSECTLSITPALDPYPGTAARIVHAVGALGALPGGQHTPVQLGI | not soluble
2 | MSLDLRLEELAILGVKLPHDFSPEVQGPLFSSQGLNNISDIAHLSNNENLSYLMTATIENNKVKLDHFVQFLPMIMKFGNSEQRFQLQPKKDTNAPKPTTNKSRGYAKPKRGFGFVDLDDAPSSQPEPSDAEITRNNFDLEQTYWSKNFVNITRVGSRTILEPAIGASLTTYNSGQCYILRLPRKLLISTNTEWPDFISRKIELDGKPLPIPSDNLTEISSREDIISCSYVNDKIDSNWGAVVSLSKSSSENLKVVGIEKQSMVLRESTPMNEGHHHHHH | soluble
3 | MVLFDVKKYETPDAKDVDMEQTKHNVSVFLSAYLAARCRVGQPREPKVTASFSLVPPSTAKNTFEAEQMLIQKEEAQEEFDYLHKLFVRGYSAIQHPHKPDVTERRKRIFYDRYINGNPIYLAAQRNCISEESVKQESNMIIVQFASALELVAFK | not soluble
4 | MGSDKIHHHHHHMNNIGLILEGGGMRGVYTAGVLDFFMDKNLYFPYVSGVSMGACNAASYVSKQRGRTKSVTVDLADDSRYISLKNFIKYKSIFGMDFIFDEVPNKLFPFDFNTFSNSTQKLVIGTTDCLTGKEVYFSHSSSNDILDIIRASSSLPFISEPVKINNYTLMDGGIADPIPIKRSIEDGNAKNVLILTREADYIKNPFKHNWILSKKYSQFKGLCKAILNRHKLYNETLKYISHLENTGKVFIIRPTFSPKVKRIEKNKSRLNALYLEGYKDAEKNYDKLLQFLNSN | not soluble
5 | MGSDKIHHHHHHMVAIEKGGARLVFAPEVGGAVAAFTVDGREVLRPTAPQVDDALLTANFPLVSFCNRIPNGRFEWRGTSVTLPPNLEGHPHPLHGQGWRMPWAVEAIETDRALLVFEHPAGDWPWAYRAEQAFTLSETGFRVTLTVINTGEEDMPAGLGFHPYFPARPGERLAAQNDGVWLIDEDVLPTVRHAGRWGPDWAVGAPVAGHALIDHCYTGWNQRAVLSAPGRPDTVITASPDCAWLHVYAPPGEGYYCVEPCASRPNPFGEGETGMVTLCPGERRSIWMEIATG | not soluble
6 | MGSDKIHHHHHHMKLRNLLPLLGLMASAAHADAVTIQSCGVSQVFDKTPSRAITLNQQATEVMLALGLQEAMVGTAYIDDAIPAQWNDAYESVPVLAEKYPAAEVVLAQEPDFLFAGFGSAFSEDNLGAAEKWHDLGIGTYLVDASCKDKHLQDVPLTVAPIFEDIETVGKIFNVEDRANALIDTLQQRLDSVKAAPSGAGQTAFIYDSGAETPFSIGCCGGPALLASLTGLQSISSDVPGTWVDLSWEHVVAADPDVILLIEADWSTAAEKRAHMEADPVLSALRAVKEGRFVTVPFSETLLGMRFADGVETVNNQLAKLP | not soluble
7 | MGHHHHHHSHMKVQGAGQLRLSIDAQDRVLLLHIIEGKGLISKQPGTCDPYVKISLIPEDSRLRHQKTQTVPDCRDPAFHEHFFFPVQEEDDQKRLLVTVWNRASQSRQSGLIGCMSFGVKSLLTPDKEISGWYYLLGEHLGRTKHLKVARRRL | soluble
8 | MKVIEFHQVSKWYGQFQALKSISLTVNKGEIVVICGPSGSGKSTLIRTVNGLESIDSGEIIVLPELDERTRRSGKIGMVFQHFNLFPHLTVLENLTLAPIRTLKLSAQEAKERAYHFLQRVKITDQTHKYPIQLSGGQQQRVAIARSLCMQPEILLFDEPTSALDPETINEVLEVMVDLAQDGITMMCVTHEMGFARKVAHRVMFMDEGEILEVGSPEQLFQNPTHPRTQQFLNQILSH | not soluble
9 | MSLRKKGPVVLGKFWIYWCEKCNVPLIGDTCSIHGKDSVFKITLTPPGDVRFAFPKDIELIREVFREHYGVDLGELLEGKIVLLNKIPGEDDSYEIIFDGFIFGIISFNPRKLKWKPGLKEEGAKLLWEKFGKSLKKWVIIDRGAVEPVKNGANVLPVGVIEAEESIRRGDEVIVVSEDGEVVGVGIAKKDYNELINPQARGTGVKMKRKSKGSGKRLNGRKATIKDVIKANSAELEKKVREARNFMRSVAEKFKLPVAVAFSGGKDSLAVLGLAMEEFNNFTVFFNNTGIEFPETVEYVMKLREKYKNLNFIIADAGDAFWRAINIFSPPGMDYRWCCKVTKLGPITLAIRKHFPNGVLMFVGQRKFESFKRYKQGRVWKNKWVPNEIGAAPIFHWTALEVWLYIFSRGLEYNPLYEKGIDRIGCFLCPSQSLAEIQRLKEEKPELWEKWYRELEKWRKRLGLPREWIEYGFWRWRRVGRREKVLAKELGVEIPEERSWEVIKFDIKEEEGKYIVRPSTKLNLTRIREVAPILGNVEEGDNYLKAGENIFDKDKNVIISPSLEEAYSSVLLLKRAYECVGCGVCITSCPEEAIELDEKRKKIVVSLEKCTHCRECMNVCPLVVIKGVDNILEGHHHHHH | not soluble
10 | ASPIGEGTFDDGPEGWVAYGTDGPLDTSTGALCVAVPAGSAQYGVGVVLNGVAIEEGTTYTLRYTATASTDVTVRALVGQNGAPYGTVLDTSPALTSEPRQVTETFTASATYPATPAADDPEGQIAFQLGGFSADAWTLCLDDVALDSEVEL | soluble
11 | SLADHMLKRACEWMRFLGYTVYYPECHYDNDILKTCIEKKLVLLTRDIELYKRYALSVYIDSVNINEQIIQITRQFPPDPGKFMTKCPDCGSDLILMRSNGLDIPDKIKKSFSMVRYCNKCSKAFWPGTHYIKIIEKINRLLK | not soluble
12 | MSERHGVQEATLRNWANLGYITSCRMGNQLFLDDESLTAYLEAHKRLGLQADYLAKIVEEKKLERDFIISRYDDLLYVLRTQKTCKPLYEIIIRELSQLIVHPGARDIFYSISMGESIEKVAGRHRITYDRALQIYNSHLRGLKVRKNVLATYRKHIIDARFQSLADKSKNINLNQEERVLQLSVGKVADTRLTNVLYKEEIRTVGQLLELVSGKGWRWLLKMEGVGRISYDRLLSNLQLAGVVDESLEQILSGRSDR | not soluble
13 | MVSQTERQHAIASLLAPTGAVSVGDLAEHFHVTTETVRRDLRIMESLGLLQRVHGGAISPEPMGTSPPRLKPALGKGMPPEPRVLELAETAVSLITPLARSIFLDSGLACTAIATVLGDPPEDARWTVVTSSPGAVIALSATDATSTVVLHGQVHGNCSSIIGSTAVDMISQLRADIAFVEVDAIQSDTSLCTFFPETIPIKQAMIKNAAFTVAVLSPRSPQDQELQLLKHPFSTLADFDALVTDDHTLDFPVLPDHNFQVVTPLEHHHHHH | soluble
14 | MHQRCNTRGGQDMGFDSRAAKKLKAMFKQQCRDAGAVCWLCGQPINYDAPPNSRDSFEPDHFYPQATHPELAEDPENLRPSHCSCNRSRKDGVPAPSLGSLSEQW | not soluble
15 | MGSSHHHHHHGGTGENLYFQGGSGLRRTEIALKKGWTHNPGHTRRGGKNLAWRPKISDAKLSQFVPLALVHPRRHPNNWQERQFNALGYTKWPKDIGFYNAGDNFEVTPEAAWRLYVHARDEPYWGKLHCEKTIITLLPVVEKAPKENMERVLDVFRHYLKRYGADHYIYNAVMQAAAFAKNYEQAEQLFKEMETLGLEPNAQSYVNMMLAAKLCGLPPEKSEAYFKRAVKDGAMQSVMRMDTEFRMWMDQLDRLGSFTASSGYLSVNEEGAKPMPRDMWAIWGWHRSESKFISRRDLIMQQVRARVHSGKELVGTVYTKTRRQPWAKFNGMLRHDYNGPSYRAPTIFPDAPEYTNEAGHKAF | soluble
16 | MVFSKKPITKYITWAIVTSQIPLPVIADSDNEIQSWIAGTASSISPHLQEGTLEDYAKGKIKALPGQAANHLVNEGIKSAFPEIIFRGGVNLEDGAKYRSSEFDMFIPVQETTSSLLFGQLGFRDHDNSSFDGRTYVNVGMGYRQEVNGWLLGVNTFLDADIRYSHLRGGIGGEVYKDSLAFSGNYYFPLTGWKMSAAHELHDERPAYGFDLRTKGTLPDFPWFSGELTYEQYYGDKVDLLGNGTLSRNPRAAGAALVWNPVPLLEVRAGYRDAGNGGSQAEGGLRVNYSFGTPLHEQLDYRNVGAPSNTTNRRAFVDRNYDIVMAYREQASKIRITAMPVSGLSGTLVTLMATVDSRYPVEKVEWSGDAELLAGLQLQGSLGSGLILPQLPLTATDGQEYSLYLTVTDSRGTRVTSERIPVRVTQDETSFRSWINVINDDVQVEDGNFVINTPLPAGEEGKVIEWHYVRERSEEEWASLKPRHIKYQSDTPGLAFKALGGTERDGHWVERVLVTHIGDDARSLKLHIEASGPDDKHPVKGTVLLQAQSDSIAQKVTSVEVLFTPGTEEANGSVTAPVVGTEMRARTLCVNNTDCTDAFNYQWEISDEMKSWQSVPGATKATWLLPYSLNGESLQNKYIRVRIISDKGNAKGNTATSDAN | not soluble
17 | MAHHHHHHMVFSIPSYLCLGDRPKKVVDERLHGVNFLTSRPKTGHYPDALFDKEFRYVYNGDRYPDPETMARREQMENRKRYITATGFISVFRPKKGEGLGSNYGLLQQEPYIHMPDHPQTRGPQPFPKVKPRQIYTSPSKAGSYGTPGLAITDIGNEYIATIYDQERINAKKERDVWRQRMPPVPFKPVGRRGYTFDEGPATGVSMCYIMTCPFREKRVQPVMKHFIIDKMWLPAGYIPDRPPPVEYWEDPYNGFDPRVDPKSRLKKSEDSIFRTGFRGDNFFYTRSIVFRRL | not soluble
18 | MLTDLEKNAIRDHYQNIGKNLPGFRPRASQREMIAAVANAFSRTLAREEGGEPPKREGESIAVIEGPTGVGKSLAYLLAGGIMAQTRGKRLIVSSATVALQEQLVDRDLPFLVEKSGLELTFALAKGRGRYLCPYKLYRLTQSNAQQNLLGFEAPAVLWDSKPKPEELKLLRDIADEFSARRFNGDRDTWPEKIDDAIWLKVTNDRHGCLKTACPNRPECPFYLARDVLETVDVVVANHDLLLADISMGGGVILPAPENSFYCIDEAHHLPKKALSRFAAEHSWNIAVWTLEKLPQLTGKIAALTDKAELANLADEAAASLLDSLHEWQFHLAEEPSLSLGVSENDRRTNSEPTWLWEDGKIPEGLETTVSNTAIAARSLLKHVIGLNDALSAARREKEQDGALLDRLTSEFGLFIARIEQISAVWDLLSTVPLEGEEPLAKWITRRADDKNDYIFNASPISSASHLANSLWRRAAGAVLTSATLQSLGNFNLMLRQTGLQWLPETTTLALKSPFDFEKQGELYIPPIYASPKDPEAHTAAVIEWLPKLISPTEAIGTLVLFSSRKQMQDVALRLPGDYLPLLLVQGELPKAVLLQKHHRAIEEGKASIIFGLDSFAEGLDLPGTACVQVIIAKLPFAMPDNPIEKTQNRWIEQRGGNPFIEITVPEAGIKLIQAVGRLIRTEQDYGRVTILDNRIKTQRYGQQLLAGLPPFKRIG | not soluble
19 | MSLIDRTHELPLTQQCRILRLARSSMYYTPREVSAHDLALMRRMDELHLEHPFAGARMLRDLLRAEGHAIGRKHVGTLMRRMGIEALYRKPNTSRRRRGDEIYPYLLRDLKIERPNQAWAADITYIPMRKGFVYLFAIIDWSSRRVLAWRLSNTLTTDFCLDAVREALHRYGRPEIFNTDQGCQFTSTDFTDLLKDNGIQISMDGKGCWRDNVFVERLWKSVKYEEVYLKAYDSVAEAKAHLGAYLRFYNERRPHRAHDGRTPDQAYFGALRDETPLAAEGHHHHHH | not soluble
20 | MNYHTATITCQTTRPIDIIDITADVRSALEESGLQQGTVTLLSRHTTACLNINEREERLMQDMTTWLKRFIPKDGDWLHNIETIDGRDNAHSHLLGLFMNSSETIPFSEGQLMLGKWQSIFFIELDGPRPKREVLVHIQGELEHHHHHH | soluble
